Laboratory results reported in patent publication US20130261012A1.

Molecular target: T1, FN14 on transiently transfected 293-F cells (human) (UniProt Q9NP84)
T1 sequence (looked up): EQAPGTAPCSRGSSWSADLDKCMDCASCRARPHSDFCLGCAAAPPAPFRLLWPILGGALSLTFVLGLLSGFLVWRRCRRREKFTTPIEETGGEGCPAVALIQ
Assay: apparent affinity of the recombinant chimeric mAb, saturation binding

Kd: 0.26 nM
B1: anti-FN14 mAb FS24 (after 7 additional selections, recombinant chimeric mAb) (antibody, from another filing, V domains shown)
VH: AVTLDESGGGLQTPGGALSLVCKASGFTFSSYDMAWVRQEPGKGLEWVAGIDYDGSGRRYAPAVKGRATISRDNGQSTLRLQLNNLRAEDTGTYYCTKCGYTGGCDYEGGYIDAWGHGTEVIVSS
VL: ALTQPSSVSANPGETVKITCSGGGSSYYAGSYYYGWYQQKAPGSAPVTLIYYNNKRPSDIPSRFSGSLSGSTNTLTITGVRADDEAVYFCGSIDNSGAAFGAGTTLTVLG
